Laboratory results reported in paper PMC2794250, “An MDM2 antagonist (MI-319) restores p53 functions and increases the life span of orally treated follicular lymphoma bearing animals” (2009).

Molecular target: recombinant His-tagged MDM2 (amino acids 1-118) (human) (UniProt Q00987)
Experiment: FP; competition with PMDM6-F

natural p53 peptide (from UniProt P04637)
Ki: 6.7 µM
